Measurements published in US7847064B2, “Methods and compositions for regulating gene expression in plant cells” (Donald Danforth Plant Science Center, priority 2004, dated 2010).

B1: RF2a-ΔPΔA: RF2a mutant, proline-rich and acidic domains removed, SEQ ID NO:70 (protein)
chain: MSSSAAAHGARPKHQHSLSMDESMSIKAEELVGASPGTEGMSSAEAKKAVSAVKLAELALVDPKRAKRIWANRQSAARSKERKMRYIAELERKVQTLQTEATTLSAQLALLQRDTSGLTTENSELKLRLQTMEQQVHLQDALNDTLKSEVQRLKVATGQMANGGGMMMNFGGMPHQFGGNQQMFQNNQAMQSMLAAHQLQQLQLHPQAQQQQVLHPQHQQQQPLHPLQAQQLQQAARDLKMKSPMGGQSQWGDGKSGSSGN
modifications: This sequence was artificially derived and/or created by the inventors.
B2: RF2a-ΔPΔQ: RF2a mutant, proline- and glutamine-rich domains removed, SEQ ID NO:71 (protein)
chain: MGHRRAHSEILSLPEDLDLCAAGGGDGPSLSDENDEELFSMFLDVEKLNSTCGASSEAEAESSSAAAHGARPKHQHSLSMDESMSIKAEELVGASPGTEGMSSAEAKKAVSAVKLAELALVDPKRAKRIWANRQSAARSKERKMRYIAELERKVQTLQTEATTLSAQLALLQRDTSGLTTENSELKLRLQTMEQQVHLQDALNDTLKSEVQRLKVATGQMANGGGMMMNFGGMPHQ
modifications: This sequence was artificially derived and/or created by the inventors.
B3: RF2a-3Δ: RF2a mutant, glutamine-rich, proline-rich and acidic domains removed, SEQ ID NO:72 (protein)
chain: MSSSAAAHGARPKHQHSLSMDESMSIKAEELVGASPGTEGMSSAEAKKAVSAVKLAELALVDPKRAKRIWANRQSAARSKERKMRYIAELERKVQTLQTEATTLSAQLALLQRDTSGLTTENSELKLRLQTMEQQVHLQDALNDTLKSEVQRLKVATGQMANGGGMMMNFGGMPHQ
modifications: This sequence was artificially derived and/or created by the inventors.

Legend:
[1] = tested on: pBII-48Ca::GUS; assay: Transactivation of pBII-48Ca::GUS by RF2a and RF2a mutants in BY-2 protoplasts; format: cell-based, tobacco; conditions: co-transfected with pBII-48Ca::GUS, 24 hours after electroporation, normalized with GFP
Method: The relative activity of RF2a and the RF2a mutants (described in Example 8) was then measured. First, a chimeric promoter was developed with a single copy of the Box II element fused to the 5′ end of a minimal CaMV 35S promoter comprising nucleotides −48 to +8 (SEQ ID NO:66). The chimeric promoter was ligated to the uidA coding sequence to create the reporter pBII-48Ca::GUS.
To analyze the function of the several domains of RF2a, effectors were created by inserting coding sequences of RF2a or the mutants of RF2a (described in Example 8) downstream of the enhanced CaMV 35S promoter in the pMON999 vector (a gift from Monsanto Company, St. Louis, Mo.). The resultant constructs, p35S::RF2a, p35S::RF2a-ΔP, p35S::RF2a-ΔQ, p35S::RF2a-ΔPΔA, p35S::RF2a-ΔPΔQ and p35S::RF2a-3Δ, were co-transfected into BY-2 protoplasts with pBII-48Ca::GUS (FIG. 17(A)). Plasmid pCat-GFP, in which the GFP gene was driven by CaMV 35S promoter, was co-introduced to serve as an internal control. The following describes, in greater detail, the construction of these vectors and the methods employed in transfecting the same into BY-2 protoplasts.
Plasmids for protoplast transfection—The coding sequences for mutants of RF2a were released from pET28a-derived plasmids and cloned into the plant expression vector pMON999 (a gift from Monsanto Company, St. Louis, Mo.) to place each gene downstream of an enhanced CaMV 35S promoter, followed by a nopaline synthase terminator sequence. The resulting effector constructs were named p35S::RF2a, p35S::RF2a-ΔP, p35S::RF2a-ΔQ, p35S::RF2a-ΔPΔA, p35S::RF2a-ΔPΔQ and p35S::RF2a-3Δ. The reporter gene construct, pBII-48Ca::GUS, was built using PCR to introduce the Box II element into a minimal CaMV 35S promoter comprising nucleotides −48 to +8 with primers BII-48Ca 5′ (SEQ ID NO:53) (which contained the Box II element) and GUS 3′ (SEQ ID NO:36) using a p35S:GUS plasmid as template. The PCR product was restricted with HindIII and NcoI, and the resulting fragment was inserted into p35S::GUS to replace the original 35S promoter.
Transfection of tobacco BY-2 protoplasts—The protoplasts were isolated from tobacco cell line BY-2 as described by Watanabe et al. (1987). Approximately one million protoplasts were transfected by electroporation with 20 μg of effector construct DNA, 15 μg of herring sperm DNA, 2.5 μg of reporter gene construct DNA, and 15 μg of pCat-GFP DNA. In samples with reporter gene alone, the total amount of DNA was adjusted by adding 20 μg of herring sperm carrier DNA. The electroporation parameters used were 300 V and 250 microfarads with the Bio-Rad electroporation system (Bio-Rad Laboratories, Hercules, Calif.). Protoplast samples were cultured in Murashige and Skoog medium with 0.4 M mannitol, pH 5.8, at 28° C. The protoplasts were collected 24 hours after electroporation.

[2] = tested on: Nicotiana tabacum cv. Xanthi NN; assay: Phenotype of transgenic tobacco plants overexpressing RF2a or RF2a mutants; format: in vivo; conditions: for phenotype of transgenic tobacco plants: CaMV 35S promoter driven, T1 generation, greenhouse; for cross-sections of the stem of transgenic plants: two-month old tobacco, toluidine blue O
Text: (Yin et al., 1997; Petruccelli et al., 2001). […] Fifteen or more independent transgenic tobacco lines were developed with the constructs described below through Agrobacterium-mediated transformation.
Plasmids for Agrobacterium-mediated transformation—The fusion genes described above relating to the plant expression constructs comprising RF2a deletion mutants were released from pMON999-derived plasmids using NotI (blunted) and cloned into the binary vector pGA-E::GUS (Petruccelli et al., 2001) using the blunt HindIII site (downstream of a CaMV 35S promoter sequence). The final plasmids were named pGA-E::GUS/P-35S::ΔP, pGA-E::GUS/P-35S::ΔQ, pGA-E::GUS/P-35S::ΔPΔA and pGA-E::GUS/P-35S::ΔPΔQ. A plasmid encoding full-length RF2a, p35S::RF2a, was also constructed using the methods described herein.
Tobacco transformation—the plasmids described above were introduced into Agrobacterium tumefaciens strain LBA4404 and used for tobacco transformation. Leaf discs from Nicotiana tabacum cv. Xanthi NN were transformed with the various plasmids following the protocol of Horsch et al. (1988). At least 15 independent transgenic lines were produced with each gene construct. Transgenic plants were self-fertilized, and T1 seeds were collected. The T1 seeds were germinated on Murashige and Skoog medium (Murashige and Skoog, 1962) with kanamycin (100 mg/L) selection, and Kan^r seedlings were grown in a greenhouse for observation.
The phenotype caused by 35S::RF2a-ΔPΔA was similar to, but less severe than, the phenotype caused by 35S::RF2a-3Δ. […] (FIG. 19(C)).

[3] = tested on: Box IIm1 element; assay: Electrophoretic mobility shift assay; format: binding; conditions: 100 ng purified protein, 32P-labeled Box IIm1 DNA probe
Method: The purified mutant proteins were then analyzed by SDS-PAGE to confirm that each protein was its expected size (FIG. 16(B)). To confirm that each of the mutant proteins bind to the DNA target, i.e., the Box II element and/or its operational derivatives, gel mobility shift assays were carried out with the purified recombinant proteins (FIG. 16(C)). The electrophoretic mobility shift assays were carried out essentially as described in Yin and Beachy (1995). 100 ng of proteins purified from the transformed E. coli were incubated with ^32P-labeled Box IIm1 DNA probe followed by electrophoresis in a 5% acrylamide gel (Yin et al., 1997) (FIG. 16(C)).

Molecule | activation function (relative GUS activity) [1] | phenotype of transgenic tobacco plants [2] | phenotype of transgenic tobacco plants ([2]; listed as 35S::RF2a-ΔPΔA) | independent transgenic lines with stunting, curved leaves and delayed flowering ([2]; T1 generation tobacco) | internodal elongation of transgenic plants ([2]; transgenic tobacco) | cross-sections of the stem of transgenic plants [2] | binding in gel mobility shift assay [3]
B1 | dropped to near basal level | severe stunting phenotype | mild to severe stunting with curved leaves and substantial delay in flowering times | 11 of 15 | strongly repressed | xylem of stunted plants was not uniformly lignified and that phloem development was altered | bind to the Box IIm1 element
B2 | greater than that of full-length RF2a | did not exhibit abnormal phenotypes |  |  |  |  | bind to the Box IIm1 element
B3 | dropped to near basal level | severe stunting phenotype |  |  |  | xylem of stunted plants was not uniformly lignified and that phloem development was altered | bind to the Box IIm1 element
